Patent US20250250357A1 (NANJING ZAIMING PHARMACEUTICAL, published 2025)
Residue numbers refer to the chain shown, from its start.

B1: S009-F8-27.1 (antibody, human IgG1, kappa, V domains shown)
VH: EVQLVESGGGLVKPGGSLKLSCAASGFTFSSYAMSWVRQTPEKRLEWVATISDGGNYTYYPDNVKGRFTISRDNAKNNLYLQMSHLKSEDTAMYYCAGDRGYPYAMDSWGQGTSVTVSS
VL: NIMMTQSPSSLAVSAGEKVTMSCKSSQSVLYSSNQKNYLAWYQQKPGQSPKLLIYWASTRESGVPDRFTGSGSGTDFTLTISNVHAEDLAVYYCHQYLSSLTFGAGTKLELKR
notes: Human-murine chimeric antibody, human IgG1 heavy and kappa light constant regions
B2: S009-F8-28.23 (antibody, human IgG1, kappa, V domains shown)
VH: B1 VH with G10D, N56S, K65E, P103S, M106L, S108Y
VL: B1 VL with N83S, H85Q
notes: as for B1
B3: S009-F8-31.22 (antibody, human IgG1, kappa, V domains shown)
VH: EVQLVESGGDLVKPGGSLKLSCAASGFTFSTYGMSWVRQTPDKRLEWVATISSGGSYTYYPDSLKGRFTISRDNAKNTLYLQMSSLKSEDTAMYYCARHEGYYYGKDYWGQGTTLTVSS
VL: DIVLTQSPATLSVTPGDSVSLSCRASHSISNNLHWYQQKSHESPRLLIKYASQSISGIPSKFSGSGSGTDFTLSINSVETEDFGMYFCQQTNSWPLTFGAGTKLELKR
notes: as for B1
B4: S009-F8-24.14 (antibody, human IgG1, kappa, V domains shown)
VH: EFQLQQSGPELVKPGASVKISCKASGYSFTDYNMNWVKLSNGKSLEWIGVIIPNYGTSSYNQKFKGKATLTVDQSSSTAYMQLNSLTSEDSAVYYCARWDNYYGSSLDYWGQGTTLTVSS
VL: DIVMTQSQKFMSTTVGDRVSITCKASQNVGTAVAWYQQKPGQSPKLLIYSASNRYTGVPDRFTGSGSGTDFILTISNMQSEDLADYFCQQYSSYPLTFGAGTKLELKR
notes: as for B1
B5: S009-F8-33.12 (antibody, human IgG1, kappa, V domains shown)
VH: EVQLQQSGAELVKPGASVKLSCTASAFNIKDYYMHWVKQRTEQGLEWIGRIDPEDGETKYAPKFQGKATITADTSSNTAYLQLSSLTSEDTAVYYCASGSGTGAMDYWGQGTSVTVSS
VL: DIVMTQSQKFMSTSVGDRVSITCKASQNVRTAVGWYQQKPGQSPKALIYLASNRHTGVPDRFTGSGSGTDFTLTISNVQSEDLADYFCLQHWNSPYTFGGGTKLVIKR
notes: as for B1
B6: S009-F8-22.23 (antibody, human IgG1, kappa, V domains shown)
VH: QVQLKQSGPGLVQPSQSLSITCTVSGFSLFSYGVHWVRQSPGKGLEWLGVIWSGGSTDYNAAFISRLSISKDNSKSQVFFKMNSLQADDTAMYYCARNGGSMITTLYYAMDYWGQGTSVTVSS
VL: DVVMTQTPLSLPVSLGDQASISCRSSQSLVHSYGNTYLHWYLQKPGQSPKLLIYKVSNRFSGVPDRFSGSGSGTDFTLKISRVEAEDLGVYFCSQSTHIPFTFGGGTKLEIKR
notes: as for B1
B7: S009-F8-32.3 (antibody, human IgG1, kappa, V domains shown)
VH: QVQLKESGPGLVAPSQSLSITCTVSGFSLSSYAISWVRQPPGKGLEWLGVIWTGGGTNYNSALKSRLSISKDNSKSQVFLKMNSLQTDDTARFYCARNNYGRLDYAMDYWGQGTSVTVSS
VL: B6 VL with S32G, Y33N, A85T, I99V, G105S
notes: as for B1
B8: S009-F8-18.9 (antibody, human IgG1, kappa, V domains shown)
VH: EFQLQQSGPELVKPGASVKISCKASGYSFTDYNMNWVKQSNGKSLEWIGIINPNYGTTSYNQKFKGRATLTVDQSSSTAYVQLNSLTSEDSAVYYCARGGYDNEAMDYWGQGTSVTVSS
VL: QIVLTQSPAIMSASPGEKVTMTCSASSSVSYMHWYQQKSGTSPKRWIYDTSKLASGVPARFSGSGSGTSYSLTISSMEAEDAATYYCQQWSSNPPTFGAGTKLELKR
notes: as for B1
B9: S009-F8-19.21 (antibody, human IgG1, kappa, V domains shown)
VH: B8 VH with A24T, I50V, S59G, R67K, V81M, N103G, Q111H
VL: B8 VL with S30N, N93Y, A99G, L105I
notes: as for B1
B10: S009-F8-36.12 (antibody, human IgG1, kappa, V domains shown)
VH: EVQLQQSGPELVKPGASVKISCKASGYTFTDYYMNWVKQSHGKSLEWIGDINPNNGGTSYNQKFKGKATLTVDKSSSTAYMELRSLTSEDSAVYYCASWGYGSSSRGYFDYWGQGTTLTVSS
VL: QIVLSQSPAILSASPGEKVTMTCRASSSVSYMHWYQQKPGSSPKPWIYATSNLASGVPARFSGSGSGTSYSLTISRVEAEDAATYYCQQWSSNPWTFGGGTKLEIKR
notes: as for B1
B11: S009-F8-29.1 (antibody, human IgG1, kappa, V domains shown)
VH: QVQLQQSGAELARPGASVKMSCKASGYTFISYTMHWVKQRPGQGLEWIGYINPSSGYTKYNQKFKDKATLTADKSSSTAYMQLNSLTSEDSAVYYCARYYSNPDYYAMDYWGQGTSVTVSS
VL: QIVLTQSPAIMSASPGEKVTITCSASSSVSYMHWFQQKPGTSPKLWIYSTSNLASGVPARFSGSGSGTSYSLTISRMEAEDAATYYCQQRSSYPLTFGGGTKLELKR
notes: as for B1
B12: S009-F2.13.3 (antibody, human IgG1, kappa, V domains shown)
VH: QVQLQQSGAELMKPGASVKLSCKATGYTFTGYWIEWVKQRPGHGLEWIGEILPGSGSTNYNEKFKGKATFTADTSSNTAYMQLSSLTTEDSAIYYCARAGAWFAYWGQGTLVTVSA
VL: QIVLTQSPAIMSASLGERVTMTCTASSSVSSSYLHWYQQKPGSSPKLWTYSTSNLASGVPARFSGSGSGTSYSLTISSMEAEDAATYYCHQYHRSPWTFGGGTKLEIKR
notes: human-murine chimeric antibody, human IgG1/kappa constant regions
B13: S009-F2.47.1 (antibody, human IgG1, kappa, V domains shown)
VH: QVQLQQPGAELVKPGASVKLSCKASGYTFTSYWMHWVKQRPGQGLEWIGMIHPNSGSTNYNEKFKSKATLTVDKSSSTAYMQLSSLTSEDSAVYYCARPVVPYWYFDVWGTGTTVTVSS
VL: B4 VL with I72T, Y91S
notes: as for B12

molecular target: T1, human MSLN-FL-his protein (human, UniProt Q13421 296-580); test: ELISA on coated antigen, no antibody (blank, column 'none')
T1 construct: Made in HEK293E cells, purified on nickel column; it is put last here; also called human MSLN full-length protein; hMSLN-FL-his; not shown: His tag
T1 sequence (Q13421 other isoform, or with tags, fused parts or gaps): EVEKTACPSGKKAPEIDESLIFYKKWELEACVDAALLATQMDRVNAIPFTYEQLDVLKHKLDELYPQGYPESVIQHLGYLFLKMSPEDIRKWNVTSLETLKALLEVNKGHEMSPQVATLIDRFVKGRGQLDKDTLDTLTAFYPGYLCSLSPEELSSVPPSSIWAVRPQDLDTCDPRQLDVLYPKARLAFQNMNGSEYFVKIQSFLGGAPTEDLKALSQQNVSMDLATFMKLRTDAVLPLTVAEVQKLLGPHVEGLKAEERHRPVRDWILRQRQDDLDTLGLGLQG

Binder | OD450 [OD]
B1 | 0.04
B2 | 0.05
B3 | 0.08
B4 | 0.06
B5 | 0.06
B6 | 0.04
B7 | 0.04
B8 | 0.05
B9 | 0.06
B10 | 0.04
B11 | 0.18

molecular target: T2, human MSLN full-length protein (NCBI: AAH09272.1) expressed on HEK293T-hMSLN-B8 cells (human, UniProt Q13421 296-598); test: FACS on HEK293T-hMSLN-B8 cells
T2 construct: Whole encoded precursor
T2 sequence (Q13421 other isoform, or with tags, fused parts or gaps limits assumed): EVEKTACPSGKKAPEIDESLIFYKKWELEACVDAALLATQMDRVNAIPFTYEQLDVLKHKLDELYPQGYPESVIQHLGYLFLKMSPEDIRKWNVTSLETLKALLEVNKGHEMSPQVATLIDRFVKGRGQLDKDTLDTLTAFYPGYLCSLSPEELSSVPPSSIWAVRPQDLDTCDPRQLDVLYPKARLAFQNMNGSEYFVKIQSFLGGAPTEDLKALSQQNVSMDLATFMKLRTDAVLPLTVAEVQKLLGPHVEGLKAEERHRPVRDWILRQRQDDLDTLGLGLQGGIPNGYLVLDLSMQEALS

Binder | EC50 [pM] | Maximum mean fluorescence intensity
B12 | 1150 | 112000
B13 | ~820 | 98200

molecular target: T3, human MSLN-R3 protein (Met487-Ser606 of NCBI AAH09272.1) expressed on HEK293T-hMSLN-R3 cells (human, UniProt Q13421 487-606); test: FACS on HEK293T-hMSLN-R3 cells
T3 construct: also called Region3
T3 sequence (Q13421 495-614): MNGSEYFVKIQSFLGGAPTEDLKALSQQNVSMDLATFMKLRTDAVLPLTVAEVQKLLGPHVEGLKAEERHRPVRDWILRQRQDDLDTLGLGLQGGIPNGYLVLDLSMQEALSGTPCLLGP

Binder | Maximum mean fluorescence intensity | binding result
B12 | 112 | no binding

molecular target: T1, human MSLN-FL-his protein; test: ELISA on coated antigen, antibody 0.0001 nM

Binder | OD450 [OD]
B1 | 0.05
B2 | 0.05
B3 | 0.08
B4 | 0.1
B5 | 0.05
B6 | 0.29
B7 | 0.07
B8 | 0.06
B9 | 0.06
B10 | 0.05
B11 | 0.07

molecular target: T1, human MSLN-FL-his protein; test: ELISA on coated antigen, antibody 1 nM

Binder | OD450 [OD]
B1 | 2.23
B2 | 2.63
B3 | 2.53
B4 | 2.77
B5 | 2.57
B6 | 2.49
B7 | 2.64
B8 | 2.29
B9 | 2.05
B10 | 2.21
B11 | 2.9

molecular target: T4, human MSLN protein endogenously expressed on OVCAR3 tumor cells (human, UniProt Q13421 296-598); test: FACS on OVCAR3 cells
T4 construct: whole, on cells; Endogenous target on OVCAR3 cells; kept apart from the recombinant full-length construct; also called mesothelin
T4 sequence (Q13421 other isoform, or with tags, fused parts or gaps): as the sequence (Q13421 other isoform, or with tags, fused parts or gaps limits assumed) above, with P14R counted along it

Binder | EC50 [pM] | Maximum mean fluorescence intensity
B12 | 570 | 14800
B13 | 10400 | 15400

molecular target: T1, human MSLN-FL-his protein; test: ELISA on coated antigen, antibody 10 nM

Binder | OD450 [OD]
B1 | 2.37
B2 | 3.13
B3 | 2.56
B4 | 2.98
B5 | 2.92
B6 | 2.88
B7 | 2.85
B8 | 2.39
B9 | 2.32
B10 | 2.69
B11 | 3.2

molecular target: T1, human MSLN-FL-his protein; test: ELISA on coated antigen, antibody 0.01 nM

Binder | OD450 [OD]
B1 | 0.31
B2 | 0.24
B3 | 0.85
B4 | 0.75
B5 | 0.43
B6 | 0.92
B7 | 0.48
B8 | 0.71
B9 | 0.4
B10 | 0.18
B11 | 0.48

molecular target: T1, human MSLN-FL-his protein; test: ELISA on coated antigen, antibody 100 nM

Binder | OD450 [OD]
B1 | 2.5
B2 | 3
B3 | 2.66
B4 | 2.91
B5 | 2.95
B6 | 2.9
B7 | 3.03
B8 | 2.42
B9 | 2.37
B10 | 2.71
B11 | 3.07

molecular target: T1, human MSLN-FL-his protein; test: ELISA on coated antigen, antibody 0.001 nM

Binder | OD450 [OD]
B1 | 0.08
B2 | 0.08
B3 | 0.2
B4 | 0.18
B5 | 0.11
B6 | 0.44
B7 | 0.11
B8 | 0.15
B9 | 0.1
B10 | 0.06
B11 | 0.13

molecular target: T1, human MSLN-FL-his protein; test: ELISA on coated antigen, antibody 0.1 nM

Binder | OD450 [OD]
B1 | 1.34
B2 | 1.04
B3 | 2.19
B4 | 2.02
B5 | 1.61
B6 | 1.71
B7 | 1.63
B8 | 1.93
B9 | 1.61
B10 | 0.73
B11 | 1.71

Molecular target: T5, monkey MSLN full-length protein (NCBI: XP_028696439.1) expressed on HEK293T-monkey MSLN cells (monkey)
T5 construct: Whole encoded precursor
T5 chain: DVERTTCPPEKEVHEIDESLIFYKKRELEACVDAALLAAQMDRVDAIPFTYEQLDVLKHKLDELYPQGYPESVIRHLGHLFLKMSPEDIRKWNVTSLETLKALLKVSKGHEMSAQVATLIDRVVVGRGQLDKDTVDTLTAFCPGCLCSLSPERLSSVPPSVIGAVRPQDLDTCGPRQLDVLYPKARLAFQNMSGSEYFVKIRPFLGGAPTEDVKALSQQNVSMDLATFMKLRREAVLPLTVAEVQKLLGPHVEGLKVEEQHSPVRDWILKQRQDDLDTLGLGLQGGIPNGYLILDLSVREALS
Test: FACS on HEK293T-monkey MSLN cells

Binder | Maximum mean fluorescence intensity | binding result | EC50 [pM]
B12 | 138 | no binding | –
B13 | 17100 | – | 320
